Test results published in patent US20210340530A1 (INTELLIA THERAPEUTICS, published 2021).

Experiments:
[1] = biological target: T1, VLD-Tetramer (pMHC tetramer with WT1 peptide …); assay: flow cytometry, VLD-Tetramer staining of engineered T cells; TRAC RNP only
T1 construct: Staining reagent; also called VLD (Wilms' tumor antigen) tetramer; TCR specific pMHC tetramer
Method: (§1) Four to 12 days after RNP nucleofection, edited T cells (200 ul/200,000 cells) were collected in a 96 well round bottom plate and spun down at 500 g for 5 minutes. Cells were then resuspended in an antibody mixture containing a combination of antibodies targeting CD3, CD4, CD8, CD45RO, CD45RA, CD27, CCR7, CD62L, and/or the TCR specific pMHC tetramer or TCR specific Vbeta chain antibody. The mixture was incubated for 45 minutes at room temperature in the dark. Samples were spun down at 500 g for 5 minutes, cell pellets collected, and resuspended in 1:10,000 DAPI (Biolegend—#422801) in FACS buffer. Flow cytometry was then performed using the cytoflex according to the manufacturer's instructions.
(§2) T cells were evaluated with additional engineered TCRs for the impact of endogenous beta chains on pairing of both the inserted alpha chain and inserted beta chain. The experiment was performed as described herein except tetramer staining was used to measure MFI and the AAV inserts in Table 31 were used for transduction.

[2] = biological target: T1, VLD-Tetramer (pMHC tetramer with WT1 …); assay: flow cytometry, VLD-Tetramer staining of engineered T cells; TRAC + TRBC RNP
Method: as §1, §2

[3] = biological target: T2, … (VLD) WT1 peptide pulsed on target cells (HLA-02.01 positive T2 cell line; OCI-AML3); assay: cell-based or functional assay
[4] = biological target: T3, … (RMF) WT1 peptide pulsed on target cells (HLA-02.01 positive T2 cell line; OCI-AML3); assay: cell-based or functional assay
[5] = biological target: T2, … (VLD) WT1 peptide pulsed on target …; assay: cell-based or functional assay; remark: listed apart in the source
[6] = biological target: T2, … (VLD) WT1 peptide pulsed on target …; assay: cell-based or functional assay; remark: listed apart in the source
[7] = biological target: T2, … (VLD) WT1 peptide pulsed on target …; assay: cell-based or functional assay; remark: listed apart in the source
[8] = biological target: T3, … (RMF) WT1 peptide pulsed on target …; assay: cell-based or functional assay; remark: listed apart in the source
[9] = biological target: T2, … (VLD) WT1 peptide pulsed on target …; assay: cell-based or functional assay; remark: listed apart in the source
[10] = biological target: T3, … (RMF) WT1 peptide pulsed on target …; assay: cell-based or functional assay; remark: listed apart in the source

B1: TCR-F (WT1-specific T-cell receptor) (TCR, V domains shown)
V domain 1: AQKITQTQPGMFVQEKEAVTLDCTYDTSDPSYGLFWYKQPSSGEMIFLIYQGSYDQQNATEGRYSLNFQKARKSANLVISASQLGDSAMYFCAISGNTPLVFGKGTRLSVIA
V domain 2: AAGVIQSPRHLIKEKRETATLKCYPIPRHDTVYWYQQGPGQDPQFLISFYEKMQSDKGSIPDRFSAQQFSDYHSELNMSSLELGDSALYFCASSLRGGLEKLFFGSGTQLSVLE
notes: also called AV14-TCR-F
[1]
  Mean % Tetramer+ (CD4+): 78.9%
  Mean % Tetramer+ (CD8+): 61%
  Mean Tetramer MFI (CD4+): 67300 MFI
  Mean Tetramer MFI (CD8+): 50100 MFI
[2]
  Mean % Tetramer+ (CD4+): 81.8%
  Mean % Tetramer+ (CD8+): 76.6%
  Mean Tetramer MFI (CD4+): 231000 MFI
  Mean Tetramer MFI (CD8+): 172000 MFI

B2: TCR-A (WT1-specific T-cell receptor) (TCR)
TCR alpha: SQQPVQSPQAVILREGEDAVINCSSSKALYSVHWYRQKHGEAPVFLMILLKGGEQKGHEKISASFNEKKQQSSLYLTASQLSYSGTYFCGTAWINDYKLSFGAGTTVTVRANIQNPDPAVYQLRDSKSSDKSVCLFTDFDSQTNVSQSKDSDVYITDKTVLDMRSMDFKSNSAVAWSNKSDFACANAFNNSIIPEDTFFPSPESSCDVKLVEKSFETDTNLNFQNLSVIGFRILLLKVAGFNLLMTLRLWSS
TCR beta: DAGVIQSPRHEVTEMGQEVTLRCKPISGHDYLFWYRQTMMRGLELLIYFNNNVPIDDSGMPEDRFSAKMPNASFSTLKIQPSEPRDSAVYFCASRKTGGYSNQPQHFGDGTRLSILEDLKNVFPPEVAVFEPSEAEISHTQKATLVCLATGFYPDHVELSWWVNGKEVHSGVSTDPQPLKEQPALNDSRYCLSSRLRVSATFWQNPRNHFRCQVQFYGLSENDEWTQDRAKPVTQIVSAEAWGRADCGFTSESYQQGVLSATILYEILLGKATLYAVLVSALVLMAMVKRKDSRG
notes: P2A remnant on the beta chain is not described; also called AV11-TCR-A; TCR-A (no cys)
[3]
  Caspase 3/7 integrated intensity; TRAC only; 0 nM VLD; T2: 9040
  Caspase 3/7 integrated intensity; TRAC only; 0.005 nM VLD; T2: 9180
  Caspase 3/7 integrated intensity; TRAC only; 0.05 nM VLD; T2: 16900
  Caspase 3/7 integrated intensity; TRAC only; 0.5 nM VLD; T2: 38800
  Caspase 3/7 integrated intensity; TRAC only; 5 nM VLD; T2: 137000
  Caspase 3/7 integrated intensity; TRAC only; 50 nM VLD; T2: 207000
  Caspase 3/7 integrated intensity; TRAC only; 500 nM VLD; T2: 233000
  Caspase 3/7 integrated intensity; TRAC/TRBC; 0 nM VLD; T2: 381000
  Caspase 3/7 integrated intensity; TRAC/TRBC; 0.005 nM VLD; T2: 374000
  Caspase 3/7 integrated intensity; TRAC/TRBC; 0.05 nM VLD; T2: 1.13e+06
  Caspase 3/7 integrated intensity; TRAC/TRBC; 0.5 nM VLD; T2: 1.17e+06
  Caspase 3/7 integrated intensity; TRAC/TRBC; 5 nM VLD; T2: 1.33e+06
  Caspase 3/7 integrated intensity; TRAC/TRBC; 50 nM VLD; T2: 1.2e+06
  Caspase 3/7 integrated intensity; TRAC/TRBC; 500 nM VLD; T2: 1.57e+06
[4]
  Caspase 3/7 integrated intensity; TRAC only; 500 nM RMF; T2: 7340
  Caspase 3/7 integrated intensity; TRAC/TRBC; 500 nM RMF; T2: 280000
[5]
  IL2 release; TRAC only; 0 nM VLD; T2: 2.26 pg/mL
  IL2 release; TRAC only; 0.005 nM VLD; T2: 2250 pg/mL
  IL2 release; TRAC only; 0.05 nM VLD; T2: 2050 pg/mL
  IL2 release; TRAC only; 0.5 nM VLD; T2: 2010 pg/mL
  IL2 release; TRAC only; 5 nM VLD; T2: 4270 pg/mL
  IL2 release; TRAC only; 50 nM VLD; T2: 7060 pg/mL
  IL2 release; TRAC only; 500 nM VLD; T2: 8380 pg/mL
  IL2 release; TRAC/TRBC; 0 nM VLD; T2: 314 pg/mL
  IL2 release; TRAC/TRBC; 0.005 nM VLD; T2: 304 pg/mL
  IL2 release; TRAC/TRBC; 0.05 nM VLD; T2: 227 pg/mL
  IL2 release; TRAC/TRBC; 0.5 nM VLD; T2: 200 pg/mL
  IL2 release; TRAC/TRBC; 5 nM VLD; T2: 494 pg/mL
  IL2 release; TRAC/TRBC; 50 nM VLD; T2: 1180 pg/mL
  IL2 release; TRAC/TRBC; 500 nM VLD; T2: 1510 pg/mL
[6]
  IFN-gamma release; TRAC/TRBC; 50 nM VLD; T2: 40200
  IFN-gamma release; TRAC/TRBC; 500 nM VLD; T2: 47600
  IFN-gamma release; only TRAC; 50 nM VLD; T2: 28100
  IFN-gamma release; only TRAC; 500 nM VLD; T2: 31500
[7]
  % CD4+ TNFa+ IFNg+; TRAC/TRBC; 0 nM VLD; T2: 1.1%
  % CD4+ TNFa+ IFNg+; TRAC/TRBC; 0.005 nM VLD; T2: 1.6%
  % CD4+ TNFa+ IFNg+; TRAC/TRBC; 0.05 nM VLD; T2: 1.2%
  % CD4+ TNFa+ IFNg+; TRAC/TRBC; 0.5 nM VLD; T2: 1.8%
  % CD4+ TNFa+ IFNg+; TRAC/TRBC; 5 nM VLD; T2: 11.1%
  % CD4+ TNFa+ IFNg+; TRAC/TRBC; 50 nM VLD; T2: 25.1%
  % CD8+ TNFa+ IFNg+; TRAC/TRBC; 0 nM VLD; T2: 9.4%
  % CD8+ TNFa+ IFNg+; TRAC/TRBC; 0.005 nM VLD; T2: 21%
  % CD8+ TNFa+ IFNg+; TRAC/TRBC; 0.05 nM VLD; T2: 53%
  % CD8+ TNFa+ IFNg+; TRAC/TRBC; 0.5 nM VLD; T2: 74.3%
  % CD8+ TNFa+ IFNg+; TRAC/TRBC; 5 nM VLD; T2: 79.8%
  % CD8+ TNFa+ IFNg+; TRAC/TRBC; 50 nM VLD; T2: 81.3%
[8]
  % CD4+ TNFa+ IFNg+; TRAC/TRBC; 50 nM RMF; T2: 1.6%
  % CD8+ TNFa+ IFNg+; TRAC/TRBC; 50 nM RMF; T2: 10%
[9]
  % CD4+ CD107a+; TRAC/TRBC; 0 nM VLD; T2: 4.45%
  % CD4+ CD107a+; TRAC/TRBC; 0.005 nM VLD; T2: 4.64%
  % CD4+ CD107a+; TRAC/TRBC; 0.05 nM VLD; T2: 4.68%
  % CD4+ CD107a+; TRAC/TRBC; 0.5 nM VLD; T2: 4.23%
  % CD4+ CD107a+; TRAC/TRBC; 5 nM VLD; T2: 11.8%
  % CD4+ CD107a+; TRAC/TRBC; 50 nM VLD; T2: 21.1%
  % CD8+ CD107a+; TRAC/TRBC; 0 nM VLD; T2: 21.9%
  % CD8+ CD107a+; TRAC/TRBC; 0.005 nM VLD; T2: 37.3%
  % CD8+ CD107a+; TRAC/TRBC; 0.05 nM VLD; T2: 64.1%
  % CD8+ CD107a+; TRAC/TRBC; 0.5 nM VLD; T2: 73%
  % CD8+ CD107a+; TRAC/TRBC; 5 nM VLD; T2: 75.8%
  % CD8+ CD107a+; TRAC/TRBC; 50 nM VLD; T2: 76.2%
[10]
  % CD4+ CD107a+; TRAC/TRBC; 50 nM RMF; T2: 4.3%
  % CD8+ CD107a+; TRAC/TRBC; 50 nM RMF; T2: 22.1%
[1]
  Mean % Tetramer+ (CD4+): 7.6%
  Mean % Tetramer+ (CD8+): 12.7%
  Mean Tetramer MFI (CD4+): 10100 MFI
  Mean Tetramer MFI (CD8+): 21900 MFI
[2]
  Mean % Tetramer+ (CD4+): 48%
  Mean % Tetramer+ (CD8+): 51.2%
  Mean Tetramer MFI (CD4+): 11300 MFI
  Mean Tetramer MFI (CD8+): 23700 MFI
